Source: US20190270815A1 (published 2019)
Numbering of substitutions follows the chain as printed.

B1: 1.139.15 hAb (antibody, V domains shown)
VH: QLQLQESGPGLVKPSETLSLTCTVSGGSISSTTYYWGWIRQPPGKGLEWIGSISYSGTTYYNPSLKSRVTIPVDTSKNQISLKLSSVTAADTSLYYCARHLGYNSNWYPFDYWGQGTLVTVSS
VL: QSALTQPPSVSGSPGQSVTISCTGTSSDVGSYNRVSWYQQPPGTAPEVIIYEVSNRPSGVPDRFSGSKSGNTASLTISGLQAEDEADYYCSSYTSSSTWVFGGGTKLTVL
B2: 1.153.7 hAb (antibody, V domains shown)
VH: EVQLLESGGGLVQPGGSLRLSCAASGFTFSSHAMSWVRQAPGKGLEWVSTITGGGGSIYYADSVKGRFTISRDNSKNTLYLQMNSLRAEDTAVYYCAKNRAGEGYFDYWGQGTLVTVSS
VL: SYELTQPLSVSVALGQTARITCGGDNIGNKDVHWYQQKPGQAPVLVIYRDSNRPSGIPEGFSGSNSGNTATLTISRAQAGDEADYYCQVWDSIWVFGGGTKLTVL
B3: 1.103.11 hAb (antibody, V domains shown)
VH: QLQLQESGPGLVKPSETLTLTCTVSADSISSTTYYWVWIRQPPGKGLEWIGSISYSGSTYYNPSLKSRVTVSVDTSKNQFSLKLNSVAATDTALYYCARHLGYNGRYLPFDYWGQGTLVTVSS
VL: QSALTQPASVSGSPGQSITISCTGTSSDVGFYNYVSWYQQHPGKAPELMIYDVSNRPSGVSDRFSGSKSGNTASLTISGLQAEDEADYYCSSYTNISTWVFGGGTKLTVL
B4: 1.49.9 hAb (antibody, V domains shown)
VH: QLQLQESGPGLVKPSETLSLTCTVSGGSISSSTYYWGWIRQPPGKGLEWIGSISYSGSTYYNPSLKSRVTISVDTSKNQFSLKLSSVTDADTAVYYCARHLGYNGRYLPFDYWGQGTLVTVSS
VL: B3 VL with L48V, N95S
B5: 1.7.3 hAb (antibody, V domains shown)
VH: B3 VH with A26G, S58N, V71I, Q79H, N85S
VL: B3 VL with S54T, N95S

The binders below were run against T1, human PD-1 expressed on cells (human, UniProt Q15116 25-288) (assay: FACS blocking of PD-L1 binding).
T1 sequence (Q15116 25-288): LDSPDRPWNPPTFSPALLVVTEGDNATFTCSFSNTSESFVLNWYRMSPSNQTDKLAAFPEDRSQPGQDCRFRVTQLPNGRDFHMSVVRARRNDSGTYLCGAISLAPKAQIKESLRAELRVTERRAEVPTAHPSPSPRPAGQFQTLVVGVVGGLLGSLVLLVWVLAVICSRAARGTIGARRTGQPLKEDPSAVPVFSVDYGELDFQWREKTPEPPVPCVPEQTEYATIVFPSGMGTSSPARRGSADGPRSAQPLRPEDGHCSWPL

B1 and B2 are within 1.5-fold of each other in IC50: 3.1 nM for the first, 4.49 nM for the second.

B3 and B4 are within 1.5-fold of each other in IC50: 4.44 nM for the first, 4.21 nM for the second.

Binder B5 has an IC50 of 3.51 nM.

Each binder was assayed against T1, human PD-1 expressed on cells (assay: FACS).

B1 and B2 are within 1.5-fold of each other in EC50: 1.92 nM for the first, 2.62 nM for the second.

B3 and B4 are within 1.5-fold of each other in EC50: 2.09 nM for the first, 2.15 nM for the second.

For B5, the EC50 was 2.44 nM.

Each binder was assayed against recombinant human PD-1 (human, UniProt Q15116 25-167) (assay: SPR).
Chain of recombinant human PD-1 (Q15116 25-167): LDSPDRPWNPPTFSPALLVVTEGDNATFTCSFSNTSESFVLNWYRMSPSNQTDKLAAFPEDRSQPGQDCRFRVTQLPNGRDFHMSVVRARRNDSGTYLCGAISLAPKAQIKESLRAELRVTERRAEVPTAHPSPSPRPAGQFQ

B1 and B2 are within 1.5-fold of each other in Kd: 3.71 nM for the first, 2.79 nM for the second.

Compared with B3, B4 is 6.1-fold higher in Kd: 0.175 nM for the first, 1.07 nM for the second. The first binds more tightly here.

B5 gave a Kd of 0.176 nM.
